Assay results from article PMC9352930, “Structure-Guided Engineering of a Complement Component C3-Binding Nanobody Improves Specificity and Adds Cofactor Activity” (Frontiers in Immunology, 2022).

How the values were obtained:
Conditions in all cases: both partners purified
[1] = molecular target: T1, C3b (proteolytic fragment of complement component C3) (human, UniProt P01024); experiment: SPR; biotinylated C-terminally avi-tagged nanobody on streptavidin (CM500M chip); native C3, C3b and C3MA injected at 0.4-200 nM; 20 mM HEPES pH 7.5, 150 mM NaCl, 0.05% Tween 20, 25°C; 1:1 model; KD for native C3 called apparent
T1 construct: complement component C3, human, beta chain; complement component C3, human, alpha' chain (alpha chain after release of C3a); also called human C3b; source: generated from native plasma C3 by trypsin cleavage, purified

[2] = molecular target: T1, C3b (proteolytic fragment of complement …); experiment: BLI; kinetics: EWE, EWEµH or EWEnH held on anti-penta his (His1K) biosensors, dilution series of C3b or iC3b; 20 mM HEPES pH 7.5, 150 mM NaCl, 30°C; 1:1 model
[3] = molecular target: T2, iC3b (human); experiment: as above
T2 construct: complement component C3, human, beta chain; it says only that FI degrades C3b to iC3b; copies: + +

[4] = molecular target: T1, C3b (proteolytic fragment of complement …); experiment: SEC; C3 or C3b mixed with a two-fold molar excess of nanobody, 5 min on ice; Superdex 200 increase, 20 mM HEPES pH 7.5, 150 mM NaCl; peak fractions on SDS-PAGE
[5] = molecular target: T1, C3b (proteolytic fragment of complement …); experiment: BLI; single concentration: nanobody variant held on anti-penta his (His1K) biosensors, transferred into 50 nM C3 or C3b for 180 s; 20 mM HEPES pH 7.5, 150 mM NaCl, 30°C

T2 sequence (chain, as listed by the source, chain 1 of 3): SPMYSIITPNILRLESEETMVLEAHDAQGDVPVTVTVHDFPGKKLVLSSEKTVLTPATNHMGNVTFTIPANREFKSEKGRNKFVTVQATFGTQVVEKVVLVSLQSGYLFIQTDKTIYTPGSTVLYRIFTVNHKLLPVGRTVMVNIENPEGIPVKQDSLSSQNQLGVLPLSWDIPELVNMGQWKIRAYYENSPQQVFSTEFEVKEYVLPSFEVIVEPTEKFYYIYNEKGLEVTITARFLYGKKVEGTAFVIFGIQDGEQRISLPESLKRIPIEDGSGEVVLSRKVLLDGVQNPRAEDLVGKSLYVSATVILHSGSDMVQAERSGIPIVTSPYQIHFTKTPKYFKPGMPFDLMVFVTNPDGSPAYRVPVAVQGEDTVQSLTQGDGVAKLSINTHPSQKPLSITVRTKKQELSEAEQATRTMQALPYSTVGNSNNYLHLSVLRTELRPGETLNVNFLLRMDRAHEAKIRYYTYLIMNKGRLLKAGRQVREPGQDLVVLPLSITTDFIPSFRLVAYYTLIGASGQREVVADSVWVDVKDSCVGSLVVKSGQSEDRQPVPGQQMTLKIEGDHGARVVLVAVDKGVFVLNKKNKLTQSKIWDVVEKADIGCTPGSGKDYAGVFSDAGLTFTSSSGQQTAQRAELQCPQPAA
T2 sequence (chain, as listed by the source, chain 2 of 3): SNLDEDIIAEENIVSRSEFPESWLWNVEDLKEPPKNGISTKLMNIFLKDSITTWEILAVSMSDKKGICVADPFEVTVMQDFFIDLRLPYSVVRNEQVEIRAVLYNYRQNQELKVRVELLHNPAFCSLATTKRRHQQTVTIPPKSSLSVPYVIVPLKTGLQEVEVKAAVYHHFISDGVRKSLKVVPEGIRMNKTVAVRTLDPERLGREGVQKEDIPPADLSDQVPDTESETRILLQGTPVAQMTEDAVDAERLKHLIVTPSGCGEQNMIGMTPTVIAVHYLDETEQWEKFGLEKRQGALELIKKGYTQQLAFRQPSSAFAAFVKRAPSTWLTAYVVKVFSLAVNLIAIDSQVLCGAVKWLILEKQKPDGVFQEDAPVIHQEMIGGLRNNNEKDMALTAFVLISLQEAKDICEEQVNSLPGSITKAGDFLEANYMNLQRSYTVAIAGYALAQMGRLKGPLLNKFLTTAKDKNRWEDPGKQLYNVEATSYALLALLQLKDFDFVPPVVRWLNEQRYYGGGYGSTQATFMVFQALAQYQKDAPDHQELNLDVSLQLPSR
T2 sequence (chain, as listed by the source, chain 3 of 3): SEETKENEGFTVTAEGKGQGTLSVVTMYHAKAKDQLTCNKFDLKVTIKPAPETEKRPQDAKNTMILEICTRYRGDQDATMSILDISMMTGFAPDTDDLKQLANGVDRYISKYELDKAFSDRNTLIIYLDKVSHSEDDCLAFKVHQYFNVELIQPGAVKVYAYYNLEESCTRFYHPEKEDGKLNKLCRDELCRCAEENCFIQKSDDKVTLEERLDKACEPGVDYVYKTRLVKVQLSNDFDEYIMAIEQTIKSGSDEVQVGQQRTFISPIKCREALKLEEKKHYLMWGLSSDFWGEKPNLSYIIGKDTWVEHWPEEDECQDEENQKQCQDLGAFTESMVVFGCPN

B1: avi-tagged, biotinylated EWE nanobody (VHH)
VHH: QVQLVETGGGLVQAGGSLRLSCAASGSIFSINAMGWFRQAPGKEREFVATINRSGGRTYYADSVKGRFTISRDNGKNMVYLQMHSLKPEDTAIYYCAAGTGWSPQTDNEYNYWGQGTQVTVSS
notes: hC3Nb1 nanobody; as the nanobody piece of m6; also called avi-tagged version of EWE; source: purified similarly to EWE (bacteria; HisTrap, Source 15S, SEC) and biotinylated; not shown: Avi tag, C-terminal, kept
Kd [1]: 2.2 nM

B2: EWE-hC3Nb1 nanobody, bacterially expressed (VHH)
VHH: QVQLVETGGGLVQAGGSLRLSCAASGSIFSINAMGWFRQAPGKEREFVATINRSGGRTYYADSVKGRFTISRDNGKNMVYLQMHSLKPEDTAIYYCAAGTGWSPQTDNEYNYWGQGTQVTVSS
notes: hC3Nb1 nanobody, beginning with its N-terminal glutamine (Gln4 of EWE); as the nanobody piece of m6; also called EWE nanobody; source: LOBSTR cells (bacteria), purified (HisTrap, Source 15S, SEC); not shown: 6xHis, C-terminal, kept
Kd [2]: 3 nM | Kd [3]: 3.6 nM

B3: hC3Nb1 nanobody, bacterially expressed (VHH)
VHH: QVQLVETGGGLVQAGGSLRLSCAASGSIFSLNAMGWFRQAPGKEREFVATINRSGGRTYYADSVKGRFTISRDNGKNMVYLQMHSLKPEDTAIYYCAAGTGWSPQTDNEYNYWGQGTQVTVSS
notes: N-terminal methionine, retained according to mass spectrometry; hC3Nb1 nanobody; in the PDB entries of its complexes with C3b (6EHG) and C3 (6RU5); pET-22b(+) plasmid; Held on anti-penta-His sensors in BLI; also called parental hC3Nb1; hC3bNb1; source: LOBSTR cells (bacteria), purified (HisTrap, Source 15S, SEC)
binding result [4]: binds

B4: hC3Nb1 nanobody, mammalian expressed (VHH)
VHH: QVQLVETGGGLVQAGGSLRLSCAASGSIFSLNAMGWFRQAPGKEREFVATINRSGGRTYYADSVKGRFTISRDNGKNMVYLQMHSLKPEDTAIYYCAAGTGWSPQTDNEYNYWGQGTQVTVSS
notes: hC3Nb1 nanobody without the N-terminal methionine; in the PDB entries 6EHG and 6RU5; pcDNA 3.1 vector; The calculated mass differs from that of the bacterial construct by more than a methionine, so tag or ends may differ; source: HEK293, transiently transfected, purified from conditioned media (HisTrap excel, ion exchange, SEC)
binding result [5]: binds

B5: hC3Nb1 Q1N (VHH)
VHH: NVQLVETGGGLVQAGGSLRLSCAASGSIFSLNAMGWFRQAPGKEREFVATINRSGGRTYYADSVKGRFTISRDNGKNMVYLQMHSLKPEDTAIYYCAAGTGWSPQTDNEYNYWGQGTQVTVSS
notes: hC3Nb1 nanobody with the N-terminal glutamine mutated to asparagine; parent as the nanobody piece of m6; The printed calculated mass (14182.7) fits a protein without the N-terminal methionine (my reckoning against 14327.9 for m6); source: expressed in bacteria, purified
binding result [5]: binds

B6: hC3Nb1 ΔQ1 (VHH)
VHH: VQLVETGGGLVQAGGSLRLSCAASGSIFSLNAMGWFRQAPGKEREFVATINRSGGRTYYADSVKGRFTISRDNGKNMVYLQMHSLKPEDTAIYYCAAGTGWSPQTDNEYNYWGQGTQVTVSS
notes: hC3Nb1 nanobody with the N-terminal glutamine deleted; parent as the nanobody piece of m6; The printed calculated mass (14068.6) fits a protein without the N-terminal methionine (my reckoning against 14327.9 for m6); source: expressed in bacteria, purified
binding result [5]: binds
